# Reference: patent US7070973B2, “Butyrylcholinesterase variants and methods of use” (priority 2000, dated 2006)
# Numbering of substitutions follows the chain as printed. In names and notes the source's numbering stands. Several values for one entry are separate records, joined by “and”; a condition that tells them apart may be missing. Identical values can stand only once. Like-named read-outs stand apart in the source and are kept apart here.
# B1: A328Y (protein, UniProt P06276 29-602, looked up, variant A328Y)
# Cholinesterase: EDDIIIATKNGKVRGMNLTVFGGTVTAFLGIPYAQPPLGRLRFKKPQSLTKWSDIWNATKYANSCCQNIDQSFPGFHGSEMWNPNTDLSEDCLYLNVWIPAPKPKNATVLIWIYGGGFQTGTSSLHVYDGKFLARVERVIVVSMNYRVGALGFLALPGNPEAPGNMGLFDQQLALQWVQKNIAAFGGNPKSVTLFGESAGAASVSLHLLSPGSHSLFTRAILQSGSFNAPWAVTSLYEARNRTLNLAKLTGCSRENETEIIKCLRNKDPQEILLNEAFVVPYGTPLSVNFGPTVDGDFLTDMPDILLELGQFKKTQILVGVNKDEGTYFLVYGAPGFSKDNNSIITRKEFQEGLKIFFPGVSEFGKESILFHYTDWVDDQRPENYREALGDVVGDYNFICPALEFTKKFSEWGNNAFFYYFEHRSSKLPWPEWMGVMHGYEIEFVFGLPLERRDNYTKAEEILSRSIVKRWANFAKYGNPNETQNNSTSWPVFKSTEQKYLTLNTESTRIMTKLRAQQCRFWTSFFPKVLEMTGNIDEAEWEWKAGFHRWNNYMMDWKNQFNDYTSKKESCVGL
# B2: Y332A (protein, UniProt P06276 29-602, looked up, variant Y332A)
# Cholinesterase: B1 Cholinesterase with Y328A, Y332A
# B3: S224Y (protein, UniProt P06276 29-602, looked up, variant S224Y)
# Cholinesterase: B1 Cholinesterase with S224Y, Y328A
# B4: butyrylcholinesterase (protein, listed as Homo sapiens)
# chain: B1 Cholinesterase with Y328A
# B5: V288W (protein, UniProt P06276 29-602, looked up, variant V288W)
# Cholinesterase: B1 Cholinesterase with V288W, Y328A
# B6: V288F (protein, UniProt P06276 29-602, looked up, variant V288F)
# Cholinesterase: B1 Cholinesterase with V288F, Y328A
# B7: L286W (protein, UniProt P06276 29-602, looked up, variant L286W)
# Cholinesterase: B1 Cholinesterase with L286W, Y328A
# B8: A328G (protein, UniProt P06276 29-602, looked up, variant A328G)
# Cholinesterase: B1 Cholinesterase with Y328G
# B9: S287G (protein)
# chain: B1 Cholinesterase with S287G, Y328A
# modifications: Human Butyrylcholinesterase variant
# B10: P285Q (protein)
# chain: B1 Cholinesterase with P285Q, Y328A
# modifications: Human Butyrylcholinesterase variant
# B11: T120F (protein, UniProt P06276 29-602, looked up, variant T120F)
# Cholinesterase: B1 Cholinesterase with T120F, Y328A
# B12: G439L (protein, UniProt P06276 29-602, looked up, variant G439L)
# Cholinesterase: B1 Cholinesterase with Y328A, G439L
# B13: A328H (protein, UniProt P06276 29-602, looked up, variant A328H)
# Cholinesterase: B1 Cholinesterase with Y328H
# B14: P285S (protein)
# chain: B1 Cholinesterase with P285S, Y328A
# modifications: Human Butyrylcholinesterase variant
# B15: Q119Y (protein, UniProt P06276 29-602, looked up, variant Q119Y)
# Cholinesterase: B1 Cholinesterase with Q119Y, Y328A
# B16: L286H (protein, UniProt P06276 29-602, looked up, variant L286H)
# Cholinesterase: B1 Cholinesterase with L286H, Y328A
# B17: Q119Y/V288F/A328Y (protein, UniProt P06276 29-602, looked up, variant Q119Y V288F A328Y)
# Cholinesterase: B1 Cholinesterase with Q119Y, V288F
# B18: A328F (protein, UniProt P06276 29-602, looked up, variant A328F)
# Cholinesterase: B1 Cholinesterase with Y328F
# B19: A328I (protein, UniProt P06276 29-602, looked up, variant A328I)
# Cholinesterase: B1 Cholinesterase with Y328I
# B20: G116W (protein, UniProt P06276 29-602, looked up, variant G116W)
# Cholinesterase: B1 Cholinesterase with G116W, Y328A
# B21: A328W (protein)
# chain: MDSKVTIICIRFLFWFLLLCMLIGKSHTEDDIIIATKNGKVRGMNLTVFGGTVTAFLGIPYAQPPLGRLRFKKPQSLTKWSDIWNATKYANSCCQNIDQSFPGFHGSEMWNPNTDLSEDCLYLNVWIPAPKPKNATVLIWIYGGGFQTGTSSLHVYDGKFLARVERVIVVSMNYRVGALGFLALPGNPEAPGNMGLFDQQLALQWVQKNIAAFGGNPKSVTLFGESAGAASVSLHLLSPGSHSLFTRAILQSGSFNAPWAVTSLYEARNRTLNLAKLTGCSRENETEIIKCLRNKDPQEILLNEAFVVPYGTPLSVNFGPTVDGDFLTDMPDILLELGQFKKTQILVGVNKDEGTWFLVYGAPGFSKDNNSIITRKEFQEGLKIFFPGVSEFGKESILFHYTDWVDDQRPENYREALGDVVGDYNFICPALEFTKKFSEWGNNAFFYYFEHRSSKLPWPEWMGVMHGYEIEFVFGLPLERRDNYTKAEEILSRSIVKRWANFAKYGNPNETQNNSTSWPVFKSTEQKYLTLNTESTRIMTKLRAQQCRFWTSFFPKVLEMTGNIDEAEWEWKAGFHRWNNYMMDWKNQFNDYTSKKESCVGL
# modifications: Human Butyrylcholinesterase variant
# Key:
# cocaine toxicity = settings: infusion of cocaine at 1 mg/kg/min, catecholamine levels standardized; cited from earlier work
# [1] = Isotope tracer cocaine hydrolysis assay, Lineweaver-Burk plot; assay type: biochemical; settings: 2 hour incubation at 37° C., x intercept of double-reciprocal plot
# Excerpt: (§1) At the conclusion of the isotope tracer assay, an aliquot of the reaction mix is acidified in order to take advantage of the solubility difference between the product and the substrate at pH 3.0.
# [2] = Gatley 1991; Xie et al. 1999; read-out: Km for cocaine hydrolysis, previously published values; cited from earlier work
# [3] = Xie et al. 1999; cited from earlier work
# [4] = Spectrophotometric (240 nm) cocaine binding and hydrolysis assay with purified butyrylcholinesterase variants; assay type: biochemical; settings: for Km / kcat (hydrolysis rate): (−)-cocaine; for Km: 0.1M potassium phosphate pH 7.0 at 30° C.; for kcat (hydrolysis rate): active sites titrated with chlorpyrifos oxon; for Cocaine Binding or Cocaine Hydrolysis (result in words): Table 4
# Method: […]. Pharmacol. 41:1249–1254 (1991). Km values were determined in 0.1M potassium phosphate pH 7.0 at 30° C. for (−)-cocaine. Vmax values and Km values were calculated using Sigma Plot for Macintosh (Jandel Scientific, San Rafael, Calif.).
# Once Vmax values and Km values were calculated, the number of active sites in each butyrylcholinesterase preparation was determined. The titration of active sites was performed with chlorpyrifos oxon (MET-674B, Chem Service, West Chester, Pa.), an inhibitor of butyrylcholinesterase. One molecule of chlorpyrifos oxon binds and inhibits one molecule of butyrylcholinesterase, which allows for calculation of the number of active sites. Based on the number of active sites, the kcat value for each variant was calculated (Table 3). […].
# [5] = stored at 4° C., after 18 months (Lynch et al.); cited from earlier work
# [6] = Microtiter [3H]-cocaine isotope tracer hydrolysis assay with immobilized butyrylcholinesterase variants; assay type: biochemical; settings: for increase in cocaine hydrolysis activity compared to human butyrylcholinesterase: region 5 library variants, Examples II through VI; for enhanced cocaine hydrolase activity (library screen): region five library, hydrolysis of [3H]-cocaine
# Excerpt: as §1
# The supernatants isolated from each of the butyrylcholinesterase variant library clones contains variable butyrylcholinesterase enzyme concentrations.
# At least three approaches are used to either increase the assay sensitivity or the assay signal.
Molecule,Km [4],kcat (hydrolysis rate) [4],Cocaine Binding or Cocaine Hydrolysis (result in words) [4],further results
COC(=O)[C@H]1[C@@H](OC(=O)c2ccccc2)C[C@@H]2CC[C@H]1N2C [cocaine],,,,LD90 (cocaine toxicity): 16 mg/kg
horse butyrylcholinesterase,,,,Km [1]: ~37.6 µM; Km [2]: 38 µM and 45 µM
B1,9 µM,0.17 s⁻¹,,increase in cocaine hydrolysis activity compared to human butyrylcholinesterase [3]: four; Hydrolyzes cocaine faster than wild-type ([4]; compared to wild-type butyrylcholinesterase): Hydrolyzes cocaine 4 times faster than wild-type
B2,240 µM,,,
B3,,,No activity,
B4,,,,original activity retained [5]: over 90%
B5,,,Not a cocaine hydrolase,
B6,17 µM,0.0167 s⁻¹,Not a cocaine hydrolase,
B7,,,Not a cocaine hydrolase,
B8,,,Not a cocaine hydrolase,
B9,,,,increase in cocaine hydrolysis activity compared to human butyrylcholinesterase [6]: four; enhanced cocaine hydrolase activity (library screen) [6]: enhanced cocaine hydrolase activity
B10,,,,increase in cocaine hydrolysis activity compared to human butyrylcholinesterase [6]: four and approximately four; enhanced cocaine hydrolase activity (library screen) [6]: enhanced cocaine hydrolase activity
B11,97 µM,,not a cocaine hydrolase,
B12,,,No cocaine hydrolysis activity,
B13,,,Not a cocaine hydrolase,
B14,,,,increase in cocaine hydrolysis activity compared to human butyrylcholinesterase [6]: approximately three; enhanced cocaine hydrolase activity (library screen) [6]: enhanced cocaine hydrolase activity
B15,56 µM,0.0333 s⁻¹,not a cocaine hydrolase,
B16,,,Not a cocaine hydrolase,
B17,33 µM,0.0383 s⁻¹,Not a cocaine hydrolase,
B18,24 µM,0.0967 s⁻¹,Not a cocaine hydrolase,
B19,11 µM,0.0083 s⁻¹,Not a cocaine hydrolase,
B20,,,no activity,
B21,10 µM,0.62 s⁻¹,,
